Test results from paper PMC314469, “Protein Interaction Networks by Proteome Peptide Scanning” (PLoS Biology, 2004).

Tests used:
Assay in all cases: SPOT array
[1] = target: T1, Boi2 SH3 (BOI2_YEAST), P39969
T1 chain: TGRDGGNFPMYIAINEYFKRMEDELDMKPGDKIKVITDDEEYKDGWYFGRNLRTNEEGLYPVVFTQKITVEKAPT

[2] = target: T2, Yfr024 SH3 (LSB3_YEAST), P43603
T2 chain: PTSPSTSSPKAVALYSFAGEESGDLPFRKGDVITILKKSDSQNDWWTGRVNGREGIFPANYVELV

[3] = target: Sho1 SH3 (SHO1_YEAST), P40073
[4] = target: T3, Boi1 SH3 (BOI1_YEAST), P38041
T3 chain: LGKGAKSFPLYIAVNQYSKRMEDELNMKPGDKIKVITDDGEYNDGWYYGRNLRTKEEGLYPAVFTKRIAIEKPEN

[5] = target: T4, Rvs167 SH3 (RV167_YEAST), P39743
T4 chain: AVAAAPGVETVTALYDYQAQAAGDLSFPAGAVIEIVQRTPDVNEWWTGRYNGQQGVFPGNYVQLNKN

[6] = target: T5, Myo5 SH3 (MYO5_YEAST), Q04439
T5 chain: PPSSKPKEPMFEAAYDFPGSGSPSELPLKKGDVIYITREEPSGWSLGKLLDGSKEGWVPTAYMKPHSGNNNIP

[7] = target: T6, Yhr016c SH3 (YSC84_YEAST), P32793
T6 chain: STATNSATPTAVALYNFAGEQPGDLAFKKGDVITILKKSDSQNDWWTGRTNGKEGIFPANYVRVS

Chain of Sho1 SH3 (SHO1_YEAST), P40073 (P40073 295-366): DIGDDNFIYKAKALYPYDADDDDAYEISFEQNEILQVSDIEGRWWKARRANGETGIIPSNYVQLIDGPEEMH

Row | Binder | normalised SPOT signal, Boehringer light units (BLU); mean over the file's lines of this peptide [1] | normalised SPOT signal, Boehringer light units (BLU); mean over the file's lines of this peptide [2] | normalised SPOT signal, Boehringer light units (BLU); mean over the file's lines of this peptide [3] | normalised SPOT signal, Boehringer light units (BLU); mean over the file's lines of this peptide [4] | normalised SPOT signal, Boehringer light units (BLU); mean over the file's lines of this peptide [5] | normalised SPOT signal, Boehringer light units (BLU); mean over the file's lines of this peptide [6] | normalised SPOT signal, Boehringer light units (BLU); mean over the file's lines of this peptide [7]
1 | IPYEKRDPTSPAPL [YLR129W 367-380] | 7.7 | 51.8 | 29.3 | 43.8 | 58.4 | 114 | 26.9
2 | IQQNKQGPKIPFYL [YBR028C 374-387] | 12.3 | 19 | 19.8 | 107 | 23.5 | 86.9 | 5
3 | IRTYKVVPLGPKAG [YBL088C 2501-2514] | 38.8 | 115 | 61.2 | 146 | 38.5 | 100 | 44.5
4 | ISADKGFPLIPSGY [YLR290C 162-175] | 16.8 | 38.2 | 32.9 | 30.1 | 32.4 | 113 | 14.4
5 | ISHNKLSPSEPILS [YER132C 703-716] | 34 | 0 | 19.4 | 0 | 48.3 | 206 | 22.7
6 | ISNRRPVPRRPSQP [YPR091C 658-671] | 56.9 | 36800 | 129 | 4610 | 82100 | 377 | 17200
7 | ITAEKSAPTSPEVY [YMR219W 1471-1484] | 0 | 63.9 | 116 | 92.4 | 3.5 | 94.2 | 71.1
8 | ITDTKLFPGNPNLM [YFR029W 524-537] | 2.3 | 28.7 | 43.8 | 113 | 67.4 | 94.6 | 15.4
9 | ITRARYMPQDPNIV [YEL056W 121-134] | 70.9 | 486 | 153 | 2220 | 111 | 190 | 84.6
10 | ITSIRGSPSLPKNK [YKL071W 35-48] | 31.5 | 1400 | 111 | 420 | 104 | 370 | 44.2
11 | IVNEKRTPALPSNL [YOR191W 260-273] | 20.9 | 74.4 | 86.8 | 73.8 | 51.5 | 102 | 11.6
12 | IYHSKKQPLVPIGS [YML030W 25-38] | 21 | 189 | 144 | 182 | 160 | 294 | 86.8
13 | KAALKYHPDKPTGD [YNL007C 28-41] | 18.7 | 32.9 | 60.7 | 21.4 | 84.8 | 156 | 18.6
14 | KALPKRRPSPPLQS [YKR019C 209-222] | 30.5 | 13400 | 758 | 1770 | 906 | 1140 | 2190
15 | KALWKIQPYLPEFS [YML130C 280-293] | 47.8 | 201 | 178 | 0 | 41.7 | 146 | 43
16 | KDEVKLHPPEPKDL [YIL009W 251-264] | 2.4 | 0 | 50.6 | 102 | 32.3 | 164 | 18.9
